Results as given in PMC5779702, “The glutamine synthetase of Trypanosoma cruzi is required for its resistance to ammonium accumulation and evasion of the parasitophorous vacuole during host-cell infection” (PLoS Neglected Tropical Diseases, 2018).

Experiments:
[1] = test system: Nc1ncnc2c1ncn2[C@@H]1O[C@H](COP(=O)(O)OP(=O)(O)OP(=O)(O)O)[C@@H](O)[C@H]1O; assay: purified protein; conditions: Mg2+
N[C@@H](CCC(=O)O)C(=O)O = assay: purified protein; conditions: Mg2+
[2] = target: T1, glutamine synthetase (TcGS) (Trypanosoma cruzi, UniProt Q4CN04); assay: enzyme inhibition kinetics of purified recombinant TcGS; type: biochemical
T1 construct: gene Tc00.1047053503405.10; recombinant His6-tagged TcGS (TcCLB.503405.10 starting at base pair 123), expressed in E. coli

[3] = target: recombinant Trypanosoma cruzi glutamine synthetase (TcGS), His6-tagged (Trypanosoma cruzi); assay: SEC; analytical size-exclusion chromatography of recombinant TcGS (elutions of the Ni-NTA column); mass estimated from a calibration of the column; TcGS followed in the fractions by Bradford, dot-blot, ELISA and GS activity

Question: Which results are given for “glutamine synthetase (TcGS) (Trypanosoma cruzi strain CL Brener)”?
Answer: Km [1]: 0.38 ± 0.10 mM; kcat [1]: 396 ± 18.2 s⁻¹; kcat/Km [1]: 1.05e+06 M⁻¹ s⁻¹; Km (N[C@@H](CCC(=O)O)C(=O)O): 0.44 ± 0.06 mM; kcat (N[C@@H](CCC(=O)O)C(=O)O): 392 ± 9.5 s⁻¹; kcat/Km (N[C@@H](CCC(=O)O)C(=O)O): 890000 M⁻¹ s⁻¹

Question: How did the Ki [2] turn out when `CS(=N)(=O)CCC(N)C(=O)O` (centres unmarked) [MS, Methionine sulfoximine] was run?
Answer: The Ki was 3.89 ± 0.04 µM.

Question: How did the stoichiometry N [3] turn out when “recombinant Trypanosoma cruzi glutamine synthetase (TcGS), His6-tagged (enzyme)” was run?
Answer: The stoichiometry N was 8.
